Laboratory results as given in PMC8575775, “Structural basis of the interaction between SETD2 methyltransferase and hnRNP L paralogs for governing co-transcriptional splicing” (Nature Communications, 2021).
Several values for one entry are separate records, joined by “and”; a condition that tells them apart may be missing. Equal values may be shown once. Ends that are not written are not given here.

How the values were obtained:
[1] = target: T1, hnRNP L Y257A (Homo sapiens, UniProt P14866, Y257A); test: ITC with hnRNP L RRM2 Y257A mutant; format: binding; settings: ITC 20 °C; N.D. = No detectable interaction under the experiment conditions
T1 construct: made in house; host or cells: Escherichia coli BL21 (DE3)
T1 sequence (P14866 189-286 Y257A): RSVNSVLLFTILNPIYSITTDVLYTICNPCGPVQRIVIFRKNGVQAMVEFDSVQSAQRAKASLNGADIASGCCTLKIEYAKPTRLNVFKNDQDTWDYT
Method: (§1) The hnRNP L_RRM2 fragment (residues189-286) was amplified from the human brain cDNA library and cloned into a modified pET28a (Novagen) vector without a thrombin protease cleavage site (termed p28a). All the mutants were generated using a MutantBEST kit (Takara) and verified via DNA sequencing. All the proteins were expressed in Escherichia coli BL21 (DE3) cells. The cells were cultured at 37 °C in LB medium, until the OD600 reached about 0.8. Then the proteins were induced with 0.2 mM isopropyl β-D-1-thiogalactopyranoside (IPTG). After induction at 16 °C for 24 h, the cells were harvested and lysed by sonication in buffer A (20 mM Tris-HCl, pH 7.8, 1 M NaCl). Proteins were first purified by Ni-NTA agarose beads and further purified by size-exclusion chromatography on a Hiload 16/60 Superdex 75 column (GE Healthcare) in buffer A. Purified proteins were dialyzed with Buffer B (20 mM Tris-HCl pH 7.8, 150 mM NaCl) and concentrated for subsequent analysis.
(§2) Isothermal titration calorimetry (ITC) assays were performed at 20 °C by using a Microcal PEAQ-ITC instrument (Malvern). We conducted the ITC experiments using SETD2 peptides for titration into hnRNP L and hnRNP LL proteins. […] The integrated heat data were analyzed using a one-site binding model by MicroCal PEAQ 1.0.0.1259-ITC Analysis Software provided by the manufacturer.

[2] = target: T2, PTB RRM2 (PTB1) (Homo sapiens, UniProt P26599); test: ITC with PTB RRM2; format: binding; settings: ITC 20 °C; N.D. = No detectable interaction under the experiment conditions
T2 construct: made in house; host or cells: Escherichia coli BL21 (DE3)

[3] = target: T3, hnRNP L RRM2 (Homo sapiens, UniProt P14866); test: ITC of SETD2 peptides with hnRNP L RRM2; format: binding; settings: ITC 20 °C, N.D. = No detectable interaction under the experiment conditions
T3 construct: made in house; host or cells: Escherichia coli BL21 (DE3)
T3 sequence (P14866 189-286): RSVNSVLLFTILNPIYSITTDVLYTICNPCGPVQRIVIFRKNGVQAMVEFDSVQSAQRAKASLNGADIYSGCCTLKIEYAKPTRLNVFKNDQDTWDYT
Method: as §1, §2

[4] = target: T4, hnRNP L RRM2 (residues 189-286) (human); test: ITC; SETD2 peptide (about 600 µM, syringe) titrated into the protein (about 50 µM, sample pool); 20 °C; MicroCal PEAQ-ITC; one-site binding model; three independent titrations; settings: both partners purified
T4 construct: heterogeneous nuclear ribonucleoprotein L, human, RRM2 fragment residues 189-286; also called hnRNP L^WT; source: E. coli BL21 (DE3), purified (Ni-NTA, size-exclusion chromatography)
T4 chain: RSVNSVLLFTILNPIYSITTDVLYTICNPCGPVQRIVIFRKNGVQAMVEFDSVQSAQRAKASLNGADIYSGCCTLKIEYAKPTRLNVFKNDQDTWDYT

[5] = target: T5, hnRNP LL RRM2 (human, UniProt Q8WVV9 166-268); test: as above; settings: both partners purified
T5 construct: heterogeneous nuclear ribonucleoprotein L-like, human, RRM2 domain; also called hnRNP LL^WT; source: E. coli BL21 (DE3), purified (Ni-NTA, size-exclusion chromatography)
T5 sequence: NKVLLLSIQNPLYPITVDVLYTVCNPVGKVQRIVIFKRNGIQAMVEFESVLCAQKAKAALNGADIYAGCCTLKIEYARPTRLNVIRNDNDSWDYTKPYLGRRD

[6] = target: T6, hnRNP L RRM2 (residues 189-286) (human, UniProt P14866 189-286); test: ITC; SETD2 peptides (about 600 µM, syringe) titrated into hnRNP L / hnRNP LL proteins (about 50 µM, cell); 20 °C; Microcal PEAQ-ITC; one-site binding model; mean of three independent experiments; settings: both partners purified
T6 construct: hnRNP L, human, RRM2 fragment, residues 189-286, amplified from a human brain cDNA library; Cloned into a modified pET28a vector without a thrombin cleavage site (p28a); also called hnRNP L RRM2 WT; source: E. coli BL21 (DE3), purified (Ni-NTA, size-exclusion chromatography)
T6 sequence (looked up): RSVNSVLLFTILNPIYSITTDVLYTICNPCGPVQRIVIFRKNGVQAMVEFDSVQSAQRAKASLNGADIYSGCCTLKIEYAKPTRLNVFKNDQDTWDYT

[7] = target: T7, hnRNP LL RRM2 (human, UniProt Q8WVV9 166-268); test: as above; settings: both partners purified
T7 construct: hnRNP LL, human, RRM2 domain; The methods describe only the cloning of hnRNP L RRM2; all proteins were expressed in E. coli; source: E. coli BL21 (DE3), purified (Ni-NTA, size-exclusion chromatography)
T7 sequence: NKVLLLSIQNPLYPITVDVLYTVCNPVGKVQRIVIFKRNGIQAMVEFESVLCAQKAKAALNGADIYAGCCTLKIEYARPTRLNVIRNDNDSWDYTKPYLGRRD

[8] = target: T8, hnRNP L RRM2 I256A (human, UniProt P14866 189-286, I256A); test: as above; settings: both partners purified
T8 construct: hnRNP L, human, RRM2 fragment 189-286 with I256A; source: E. coli BL21 (DE3), purified (Ni-NTA, size-exclusion chromatography)
T8 sequence (looked up): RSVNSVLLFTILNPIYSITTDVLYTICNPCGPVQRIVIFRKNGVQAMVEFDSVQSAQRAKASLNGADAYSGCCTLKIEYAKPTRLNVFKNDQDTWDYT

[9] = target: T9, hnRNP L^V210A RRM2 (human, UniProt P14866 189-286, V210A); test: ITC; SETD2 peptide (about 600 µM, syringe) titrated into the protein (about 50 µM, sample pool); 20 °C; MicroCal PEAQ-ITC; one-site binding model; three independent titrations; settings: both partners purified
T9 construct: heterogeneous nuclear ribonucleoprotein L, human, RRM2 fragment residues 189-286 as Dm1, with V210A; source: E. coli BL21 (DE3), purified (Ni-NTA, size-exclusion chromatography)
T9 sequence (looked up): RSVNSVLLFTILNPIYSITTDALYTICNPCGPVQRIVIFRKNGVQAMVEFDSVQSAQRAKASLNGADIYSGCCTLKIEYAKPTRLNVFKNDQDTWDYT

[10] = target: T10, hnRNP L^I214A RRM2 (human, UniProt P14866 189-286, I214A); test: as above; settings: both partners purified
T10 construct: heterogeneous nuclear ribonucleoprotein L, human, RRM2 fragment residues 189-286 as Dm1, with I214A; source: E. coli BL21 (DE3), purified (Ni-NTA, size-exclusion chromatography)
T10 sequence (looked up): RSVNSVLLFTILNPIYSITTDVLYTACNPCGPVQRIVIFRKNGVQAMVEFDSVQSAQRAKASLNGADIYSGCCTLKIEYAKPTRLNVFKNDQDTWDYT

[11] = target: T11, hnRNP L^I256A RRM2 (human, UniProt P14866 189-286, I256A); test: as above; settings: both partners purified
T11 construct: heterogeneous nuclear ribonucleoprotein L, human, RRM2 fragment residues 189-286 as Dm1, with I256A; source: E. coli BL21 (DE3), purified (Ni-NTA, size-exclusion chromatography)
T11 sequence (looked up): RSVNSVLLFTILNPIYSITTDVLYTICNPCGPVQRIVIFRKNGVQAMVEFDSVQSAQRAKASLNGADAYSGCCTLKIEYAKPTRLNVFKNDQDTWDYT

[12] = target: T12, hnRNP L^L263A RRM2 (human, UniProt P14866 189-286, L263A); test: as above; settings: both partners purified
T12 construct: heterogeneous nuclear ribonucleoprotein L, human, RRM2 fragment residues 189-286 as Dm1, with L263A; source: E. coli BL21 (DE3), purified (Ni-NTA, size-exclusion chromatography)
T12 sequence (looked up): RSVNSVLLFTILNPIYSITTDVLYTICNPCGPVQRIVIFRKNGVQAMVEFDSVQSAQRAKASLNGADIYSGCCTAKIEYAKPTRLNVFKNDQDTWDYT

[13] = target: T13, hnRNP LL^V188I RRM2 (human, UniProt Q8WVV9 166-268, V188I); test: as above; settings: both partners purified
T13 construct: heterogeneous nuclear ribonucleoprotein L-like, human, RRM2 domain as Dm4, with V188I; source: E. coli BL21 (DE3), purified (Ni-NTA, size-exclusion chromatography)
T13 sequence: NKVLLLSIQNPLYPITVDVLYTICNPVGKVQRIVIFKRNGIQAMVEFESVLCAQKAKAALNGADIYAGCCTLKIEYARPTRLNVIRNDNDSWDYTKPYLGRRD

[14] = target: T12, hnRNP L^L263A RRM2; test: as above; settings: both partners purified; remark: listed apart in the source

T2 sequence (P26599 184-260 limits assumed): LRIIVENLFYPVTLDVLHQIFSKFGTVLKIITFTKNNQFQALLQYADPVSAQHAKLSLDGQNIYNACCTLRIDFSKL

## YPPGYPMQAYVDPSNPNAGKVLLPTP [SETD2^2167–2192]
[1]
  KD / interaction detected by ITC, in words: completely abolished
[2]
  KD / interaction detected by ITC, in words: no detectable affinity

## SETD2^2113–2140: adjacent SETD2 fragment, residues 2113–2140, used as non-binding control in ITC (RNKLSTEERRKLFEQEVAQREAQKQQQQ)
[3]
  KD / interaction detected by ITC, in words: could not detect any interaction
[3]; listed as SETD2^2113-2140
  KD / interaction detected by ITC, in words: No Binding

## SNPNAGKVLLPTP (source: synthetic peptide) [SETD2^2180-2192 peptide]
[4]
  Kd: 11.4 µM and 11.8 µM and 11.5 µM
  stoichiometry N: 1.01 and 1 and 0.96
[5]
  Kd: 20.2 µM and 19.8 µM and 20.1 µM (2×)
  stoichiometry N: 0.82 and 0.83 and 0.89

## YPPGYPMQAYVDPSNPNAGKVLLPTP (peptide, UniProt Q9BYW2 2167-2192, looked up, source: synthetic peptide) [SETD2 2167–2192 peptide]
[6]
  Kd: 5.86 µM
  stoichiometry N: 0.93
[7]
  Kd: 8.27 µM
[8]
  fold decrease in binding against wild-type hnRNP L RRM2: 9 fold

B1: SETD2 2180–2192 peptide (peptide)
peptide: SNPNAGKVLLPTP
notes: also called truncated peptide; source: synthetic peptide
[6]
  Kd: 11.6 µM

## YPPGYPMQAYVDPSNPNAGKVLLPTP (peptide, UniProt Q9BYW2 2167-2192, looked up, source: synthetic peptide) [SETD2^2167-2192 peptide]
[4]
  Kd: 5.83 µM and 5.91 µM
  stoichiometry N: 0.93 and 0.92
[5]
  Kd: 8.58 µM and 8.04 µM and 8.19 µM
  stoichiometry N: 0.95 and 1.04
[9]
  Kd: 9.1 µM and 8.9 µM and 9.33 µM and 9.11 µM
  stoichiometry N: 0.93 and 0.78 and 1.13
[10]
  Kd: 15.6 µM and 16.3 µM and 16.2 µM and 16 µM
  stoichiometry N: 1.01 and 1.05 and 1.18
[11]
  Kd: 34.8 µM and 35.8 µM and 35 µM and 35.2 µM
  stoichiometry N: 1.3 and 1.31 and 1.18
[12]
  Kd: 14.4 µM and 13.6 µM and 13.2 µM and 13.7 µM
  stoichiometry N: 0.85 and 0.98 and 0.93
[13]
  Kd: 6.16 µM and 6.44 µM and 6.3 µM
  stoichiometry N: 1.1 and 0.96 and 1.12
[14]
  stoichiometry N: 0.97
